Measurements published in paper PMC10372031, “Architecture and autoinhibitory mechanism of the plasma membrane Na^+/H^+ antiporter SOS1 in Arabidopsis” (Nature Communications, 2023).

Target: the molecule itself
Assay: cryo-EM structure; single-particle cryo-EM of purified SOS1 in 20 mM HEPES pH 7.5, 150 mM NaCl, 5 mM β-ME, 0.007% GDN; two conformations (SOS1 at 2.8 Å, SOS1^expand at 3.4 Å)

B1: Arabidopsis thaliana Salt-overly-sensitive 1 (SOS1), full-length wild type (natural protein, UniProt Q9LKW9 1-1146, looked up)
chain: MTTVIDATMAYRFLEEATDSSSSSSSSKLESSPVDAVLFVGMSLVLGIASRHLLRGTRVPYTVALLVIGIALGSLEYGAKHNLGKIGHGIRIWNEIDPELLLAVFLPALLFESSFSMEVHQIKRCLGQMVLLAVPGVLISTACLGSLVKVTFPYEWDWKTSLLLGGLLSATDPVAVVALLKELGASKKLSTIIEGESLMNDGTAIVVFQLFLKMAMGQNSDWSSIIKFLLKVALGAVGIGLAFGIASVIWLKFIFNDTVIEITLTIAVSYFAYYTAQEWAGASGVLTVMTLGMFYAAFARTAFKGDSQKSLHHFWEMVAYIANTLIFILSGVVIAEGILDSDKIAYQGNSWRFLFLLYVYIQLSRVVVVGVLYPLLCRFGYGLDWKESIILVWSGLRGAVALALSLSVKQSSGNSHISKETGTLFLFFTGGIVFLTLIVNGSTTQFVLRLLRMDILPAPKKRILEYTKYEMLNKALRAFQDLGDDEELGPADWPTVESYISSLKGSEGELVHHPHNGSKIGSLDPKSLKDIRMRFLNGVQATYWEMLDEGRISEVTANILMQSVDEALDQVSTTLCDWRGLKPHVNFPNYYNFLHSKVVPRKLVTYFAVERLESACYISAAFLRAHTIARQQLYDFLGESNIGSIVINESEKEGEEAKKFLEKVRSSFPQVLRVVKTKQVTYSVLNHLLGYIENLEKVGLLEEKEIAHLHDAVQTGLKKLLRNPPIVKLPKLSDMITSHPLSVALPPAFCEPLKHSKKEPMKLRGVTLYKEGSKPTGVWLIFDGIVKWKSKILSNNHSLHPTFSHGSTLGLYEVLTGKPYLCDLITDSMVLCFFIDSEKILSLQSDSTIDDFLWQESALVLLKLLRPQIFESVAMQELRALVSTESSKLTTYVTGESIEIDCNSIGLLLEGFVKPVGIKEELISSPAALSPSNGNQSFHNSSEASGIMRVSFSQQATQYIVETRARAIIFNIGAFGADRTLHRRPSSLTPPRSSSSDQLQRSFRKEHRGLMSWPENIYAKQQQEINKTTLSLSERAMQLSIFGSMVNVYRRSVSFGGIYNNKLQDNLLYKKLPLNPAQGLVSAKSESSIVTKKQLETRKHACQLPLKGESSTRQNTMVESSDEEDEDEGIVVRIDSPSKIVFRNDL
notes: Arabidopsis thaliana SOS1 Na+/H+ antiporter, ecotype Columbia (Col-0) cDNA, 1146 residues; model holds residues 32-972, 1007-1017 and 1030-1048; Eluate was incubated with PreScission protease for 3 h before SEC; residues of the protease site may remain at the C-terminus; also called AtSOS1; SOS1-ClassII; source: HEK293F cells (Bac-to-Bac baculovirus, pEG-BacMam), purified (Streptactin beads, …)
Question: With B1 as the protein, how does the “stoichiometry N” value read?
Answer: 2
